This test addresses T1, c-myc-tagged wild-type human APCDD1 (human, UniProt Q8J025 27-514, limits assumed).
T1 construct: Expressed from pCXN2.1 in HEK293T cells; also called c-myc-tagged APCDD1; not shown: C-terminal c-myc tag
Put plainly: immunoprecipitation with anti-c-myc antibody from co-transfected HEK293T cells, western blot with anti-HA. The source says: To examine the 130 KDa fragment, we overexpressed both HA-tagged and c-myc-tagged APCDD1 in HEK293T cells, and performed immunoprecipitation using an anti-c-myc antibody, which was followed by western blot with an anti-HA antibody. […] By contrast, only a faint fragment, 52 KDa in size, was detected in total cell lysate of the L9R mutant construct-transfected cells (FIG. 3C; lane 2, top panel). In addition, a 65 KDa fragment was detected in the medium of the wild-type and the control L9V mutant APCDD1 construct-transfected cells, while no fragment in the medium of the L9R mutant construct-transfected cells (FIG. 3C; lanes 1-3, bottom panel).
Immunoprecipitation. Expression plasmids of HA-tagged APCDD1 and c-myc-tagged APCDD1 (4 μg each) were co-transfected into HEK293T cells as described above. 48 h after the transfection, the cells were harvested and homogenized in lysis buffer (50 mM Tris-HCl (pH 8.0), 150 mM NaCl, 0.5% NP40, and 1× Complete Mini Protease Inhibitor Cocktail). Total cell lysates were collected by centrifugation at 14,000 rpm for 20 min at 4° C. The samples were incubated with 0.3 μg of normal rabbit IgG (Santa Cruz Biotechnology) and 10 μl of protein A/G plus agarose (Santa Cruz) for 30 min at 4° C., and centrifuged at 10,000 rpm for 1 min at 4° C. […]
In general terms: In western blotting, separated proteins are transferred to a membrane and probed.

The results in this text go back to patent US20120003244A1 (published 2012).

B1: C-terminal HA-tagged wild-type human APCDD1 (SWAMP-HA; pCXN2.1-Wt-SWAMP-HA) (receptor)
chain: not shown
notes: Expressed from pCXN2.1 in HEK293T cells; also called HA-tagged APCDD1; HA-tagged SWAMP; not shown: C-terminal HA (hemagglutinin) tag
As to B1, the binding result is listed as “binds”.
